Measurements taken from PMC6364671.
pIC50: −log10 of the molar value.

Target: recombinant human CD74 (C27S) (human) (UniProt P04233)
Assay: ELISA

Row | pIC50 | Substance
1 | 5.79 | DRα1-hMOG-35-55 (from UniProt P01903 15-97)
2 | 6.03 | DRα1-mMOG-35-55
